Experimental data reported in patent US20260209317A1.
Read-outs that look alike come from different tables or passages of the source.

Assays:
[1] = target: SARS-CoV-2 WA-1 S-2P spike protein (SARS-CoV-2), P0DTC2; details: remark: other sources report otherwise
[2] = target: T1, SARS-CoV-2 Omicron BA.1 spike protein (on pseudotyped lentivirus) (SARS-CoV-2), P0DTC2
[3] = target: T1, SARS-CoV-2 Omicron BA.1 spike protein …; experiment: cell-based or functional assay

| Binder | % inhibition of ACE2 binding [1] | neutralization IC50 [2] | neutralization IC80 [2] | neutralization IC50 [3] |
| --- | --- | --- | --- | --- |
| A19-46.1 (antibody) chain 1: QVQLVESGGGVVQPGRSLRLSCAASGFTLSSYGMHWVRQAPGKGLEWVAVISYDGSNKYYVDSVKGRFTISRDNSKNTLYLQMNSLRAEDTAVYYCARGWAYWELLPDYYYGMDVWGQGTTVTVSS chain 2: QTVVTQEPSFSVSPGGTVTLTCGLSSGSVSTAYFPSWYQQTPGQAPRTLIYGTNTRSSGVPDRFSGSILGNKAALTITGAQADDESDYYCVLYMGRGIVVFGGGTKLTVL | 98% |  |  |  |
| B2-269.1 (antibody, V domains shown) VH: EVQLVESGGGLVQPGGSLRLSCAASGITVSSNYMSWVRQPPGKGLDWVSLIFSGGSTYYADSVKGRFTISRDNSKNTLYLQMNSLRAEDTAVYYCARVGVAVAGTDYDIWGQGTMVTVSS VL: DIQMTQSPSSLSASVGDRVTITCQASQDINKYLNWYQQKPGKAPKLLIYDASNLETGVPSRFSGSGSGTDFTFTISSLQPEDIATYYCLHYENLPLSFGGGTKVEIK |  | 0.01 µg/mL | 0.02 µg/mL | < 0.1 µg/mL |
